Paper PMC5518878, “Molecular assembly of rhodopsin with G protein-coupled receptor kinases” (Cell Research, 2017)

What was measured:
[1] = target: T1, Arrestin-biotin-MBP (human wild-type visual arrestin), purified (human, UniProt P10523 1-405, biotin on the tag); assay: AlphaScreen or HTRF; biotinylated WT arrestin and His8-tagged 4M Rho, with 80 nM purified GRK1 and 40 μM ATP added (indirect kinase assay); conditions: both partners purified
T1 construct: human visual arrestin (arrestin1); also called WT arrestin; arrestin1; source: Sf9 insect cells, purified on amylose beads; not shown: biotin tag, C-terminal, kept

[2] = target: T2, serotonin receptor 5-HT1B fused to a TEV cleavage site and tTA (human, UniProt P28222 1-390); assay: Tango assay (TEV protease proximity reporter); HTL cells co-transfected with receptor-TEV cleavage site-tTA and GRK-TEV protease fusions; luciferase reporter; vehicle or ligand overnight (ATR 10 μM for rhodopsin; paroxetine; DHE 0.1 μM, GR 127935 1 μM; SX 1 μM, ICI 118 551 1 μM); DNA amounts adjusted for similar expression; conditions: partners not purified
T2 construct: human serotonin receptor 5-HT1B; also called HTR1b; source: HTL cells, transfected (pcDNA3), in cells; not shown: TEV cleavage site (ENLYFQS), C-terminal, kept

[3] = target: T3, β2-adrenergic receptor fused to a TEV cleavage site and tTA (human, UniProt P07550 1-413); assay: as above; conditions: partners not purified
T3 construct: human β2-adrenergic receptor; also called β2AR; source: HTL cells, transfected (pcDNA3), in cells; not shown: TEV cleavage site (ENLYFQS), C-terminal, kept

Row | Binder | binding result [1] | fold induction by the agonist dihydroergotamine over the vehicle control [2] [fold] | fold induction by the agonist salmeterol xinafoate over the vehicle control [3] [fold]
1 | H8-MBP-Rho (4M) phosphorylated by purified GRK1 with ATP (receptor, human, UniProt P08100 1-348, looked up, phosphorylated by GRK1; sites not stated, human rhodopsin; also called GRK-phosphorylated Rho; source: HEK293S cells, purified on amylose beads; phosphorylated in the assay mixture by 80 nM purified GRK1 with 40 μM ATP; not shown: His8, N-terminal, kept) MCGTEGPNFYVPFSNATGVVRSPFEYPQYYLAEPWQFSMLAAYMFLLIVLGFPINFLTLYVTVQHKKLRTPLNYILLNLAVADLFMVLGGFTSTLYTSLHGYFVFGPTGCNLQGFFATLGGEIALWSLVVLAIERYVVVCKPMSNFRFGENHAIMGVAFTWVMALACAAPPLAGWSRYIPEGLQCSCGIDYYTLKPEVNNESFVIYMFVVHFTIPMIIIFFCYGQLVFTVKEAAAQQQESATTQKAEKEVTRMVIIYVIAFLICWVPYASVAFYIFTHQGSCFGPIFMTIPAFFAKSAAIYNPVIYIMMNKQFRNCMLTTICCGKNPLGDDEASATVSKTETSQVAPA | binds |  | 
2 | bovine GRK2 fused to the N-terminus of TEV protease (enzyme, UniProt P21146 1-689, looked up, bovine GRK2; source: HTL cells, transfected (pcDNA3), in cells; not shown: HA or FLAG, C-terminal, kept; TEV protease, C-terminal, kept) MADLEAVLADVSYLMAMEKSKATPAARASKKILLPEPSIRSVMQKYLEDRGEVTFEKIFSQKLGYLLFRDFCLKHLEEAKPLVEFYEEIKKYEKLETEEERLVCSREIFDTYIMKELLACSHPFSKSAIEHVQGHLVKKQVPPDLFQPYIEEICQNLRGDVFQKFIESDKFTRFCQWKNVELNIHLTMNDFSVHRIIGRGGFGEVYGCRKADTGKMYAMKCLDKKRIKMKQGETLALNERIMLSLVSTGDCPFIVCMSYAFHTPDKLSFILDLMNGGDLHYHLSQHGVFSEADMRFYAAEIILGLEHMHNRFVVYRDLKPANILLDEHGHVRISDLGLACDFSKKKPHASVGTHGYMAPEVLQKGVAYDSSADWFSLGCMLFKLLRGHSPFRQHKTKDKHEIDRMTLTMAVELPDSFSPELRSLLEGLLQRDVNRRLGCLGRGAQEVKESPFFRSLDWQMVFLQKYPPPLIPPRGEVNAADAFDIGSFDEEDTKGIKLLDSDQELYRNFPLTISERWQQEVAETVFDTINAETDRLEARKKTKNKQLGHEEDYALGKDCIMHGYMSKMGNPFLTQWQRRYFYLFPNRLEWRGEGEAPQSLLTMEEIQSVEETQIKERKCLLLKIRGGKQFVLQCDSDPELVQWKKELRDAYREAQQLVQRVPKMKNKPRSPVVELSKVPLIQRGSANGL |  | 2.5 | 2
